Experimental data taken from patent US20150218281A1 (Ablynx, published 2015).
Blank lines part the entries; values can stand above or below the binder they belong to.

B5: recombinant human OX40L (extracellular domain, R&D Systems) (ligand)
chain: QVSHRYPRIQSIKVQFTEYKKEKGFILTSQKEDEIMKVQNNSVIINCDGFYLISLKGYFSQEVNISLHYQKDEEPLFQLKKVRSVNSLMVASLTYKDKVYLNVTTDNTSLDDFHVNGGELILIHQNPGEFCVL
notes: also called hOX40L; rec. hOX40L

What was measured:
[1] = target: B5; assay: cell-based or functional assay
[2] = target: T1, biotinylated hOX40L (R&D Systems, biotinylated in house) (human, UniProt P23510 51-183, biotinylated with Sulfo-NHS-LC-Biotin, sites not stated); assay: hOX40L/hOX40 AlphaScreen, assay 3, heated at Tm+10 C
T1 construct: same bought protein as m10, biotinylated; also called biotinylated OX40L
T1 sequence: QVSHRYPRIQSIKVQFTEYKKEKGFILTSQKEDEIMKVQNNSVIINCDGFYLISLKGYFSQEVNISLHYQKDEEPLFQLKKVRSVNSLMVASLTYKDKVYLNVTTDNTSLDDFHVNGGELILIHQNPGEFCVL
Description: (§1) Next, streptavidin donor beads were added and incubated for an additional 1 hour. Fluorescence was measured by reading plates on the EnVision Multilabel Plate Reader using an excitation wavelength of 680 nm and an emission wavelength of 520 nm.
(§2) In the TSA assay, Nanobodies were diluted to a concentration of 0.2 mg/ml and melting temperature (Tm) was determined at different pH by stepwise increase in temperature in presence of Sypro Orange, a dye that binds to […] residues that become exposed upon unfolding of the protein, using the Lightcycler (Roche) for detection. […] In SEC analysis, the Nanobodies were analyzed on a Phenomenex matrix to allow detection of multimers, aggregates or ‘stickyness’.

[3] = target: T1, biotinylated hOX40L (R&D Systems, …); assay: hOX40L/hOX40 AlphaScreen, assay 2, heated at Tm+10 C
Description: as §1, §2

[4] = target: T1, biotinylated hOX40L (R&D Systems, …); assay: hOX40L/hOX40 AlphaScreen, assay 2, native; assay 2, native (not Tm + 10° C.)
[5] = target: T1, biotinylated hOX40L (R&D Systems, …); assay: hOX40L/hOX40 AlphaScreen, assay 3, native
Description: as §1, §2

[6] = target: T1, biotinylated hOX40L (R&D Systems, …); assay: hOX40L/hOX40 AlphaScreen
[7] = target: B5; assay: SPR, second injection after competitor OX40L01B11
Description: (§3) In addition, it was investigated to what extend the 7 anti-OX40L Nanobodies have a different or identical or overlapping epitope. Standard conditions were as described above. […] 1300 RU. A dual injection was performed at 10 μl/min for 2 min, starting with 500 nM of the first Nanobody, followed by 500 nM of the second Nanobody. After 10 min dissociation, regeneration of the surface was performed by injection of 50 mM NaOH for 5-20 sec at 100 μl/min.

[8] = target: T1, biotinylated hOX40L (R&D Systems, …); assay: AlphaScreen, 31 pM biotinylated hOX40L + 80 pM OX40/Fc
Description: as §1

[9] = target: T2, full length human OX40L expressed on CHO cells (human, UniProt P23510 1-183); assay: competition FACS with hOX40/Fc on CHO-hOX40L
T2 construct: CHO K1 stably transfected as described for CAKI cells; also called CHO-hOX40L; hOX40L expressing CHO cells
T2 sequence: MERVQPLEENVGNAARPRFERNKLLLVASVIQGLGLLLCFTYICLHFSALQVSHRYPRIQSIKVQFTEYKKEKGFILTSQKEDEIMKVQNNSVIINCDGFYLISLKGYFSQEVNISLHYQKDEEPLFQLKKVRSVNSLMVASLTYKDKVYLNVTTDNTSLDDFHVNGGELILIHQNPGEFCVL
Description: The competition FACS assay was performed as described in example 2.

[10] = target: T1, biotinylated hOX40L (R&D Systems, …); assay: AlphaScreen, 120 pM biotinylated hOX40L + 0.2 nM hOX40/Fc
Description: as §1

hCD40L = target: T3, hCD40L (human, UniProt P29965 113-261); assay: competition ELISA on neutravidin captured biotinylated hOX40L
T3 sequence (looked up): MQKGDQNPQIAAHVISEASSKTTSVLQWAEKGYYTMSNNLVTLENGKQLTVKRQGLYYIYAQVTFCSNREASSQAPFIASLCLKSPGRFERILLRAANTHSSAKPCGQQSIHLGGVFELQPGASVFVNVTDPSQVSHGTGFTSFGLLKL
Description: (§4) The binding of OX40L blocking Nanobodies to other TNF family members was tested in a competition ELISA.
(§5) Detection was done using sTMB (SDT Reagents, Baesweiler, Germany), the reaction was stopped with 1M HCl and absorbance was determined at 450 nm.

[11] = target: T4, human tumor necrosis factor-related apoptosis inducing ligand (human, UniProt P50591 114-281); assay: as above
T4 construct: also called hTRAIL; TRAIL
T4 sequence (P50591 114-281 limits assumed): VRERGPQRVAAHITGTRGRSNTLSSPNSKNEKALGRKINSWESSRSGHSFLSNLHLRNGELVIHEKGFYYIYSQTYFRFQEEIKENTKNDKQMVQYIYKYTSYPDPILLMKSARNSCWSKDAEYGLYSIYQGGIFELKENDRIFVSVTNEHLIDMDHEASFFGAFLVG
Description: as §4, §5

hCD30L = target: T5, hCD30L (human, UniProt P32971 63-234); assay: as above
T5 sequence (looked up): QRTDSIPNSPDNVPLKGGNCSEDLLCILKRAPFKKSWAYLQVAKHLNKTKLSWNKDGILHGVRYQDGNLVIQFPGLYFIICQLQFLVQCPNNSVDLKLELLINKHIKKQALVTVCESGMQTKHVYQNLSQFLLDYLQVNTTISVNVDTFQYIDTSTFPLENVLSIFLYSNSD
Description: as §4, §5

[12] = target: T6, human Receptor Activator for Nuclear Factor kappa B Ligand (human, UniProt O14788 143-317, limits assumed); assay: as above
T6 construct: also called hRANKL; RANKL
T6 sequence (looked up): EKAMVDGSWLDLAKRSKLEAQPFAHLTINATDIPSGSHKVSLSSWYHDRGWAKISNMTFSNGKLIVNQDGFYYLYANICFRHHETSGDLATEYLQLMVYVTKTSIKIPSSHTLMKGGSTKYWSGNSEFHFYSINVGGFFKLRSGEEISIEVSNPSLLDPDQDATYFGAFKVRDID
Description: as §4, §5

hTNF-alpha = hTNF-alpha (human, UniProt P01375 77-233); assay: as above
Chain of hTNF-alpha (P01375 77-233 limits assumed): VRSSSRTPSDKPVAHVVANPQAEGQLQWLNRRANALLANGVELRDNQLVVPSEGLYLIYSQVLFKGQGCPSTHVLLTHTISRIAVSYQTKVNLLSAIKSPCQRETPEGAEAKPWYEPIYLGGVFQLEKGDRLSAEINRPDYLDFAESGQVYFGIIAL
Description: as §4, §5

[13] = target: B5; assay: SPR, second injection after competitor OX40L15B07
Description: as §3

[14] = target: B5; assay: SPR, second injection after competitor OX40L19D08
Description: as §3

[15] = target: T7, cynomolgus OX40L expressed on CHO cells (cynomolgus monkey, UniProt P23510 1-183 (human entry)); assay: FACS binding to CHO cells, anti-c-myc detection
T7 construct: also called cynoOX40L; CHO-cynoOX40L
T7 chain: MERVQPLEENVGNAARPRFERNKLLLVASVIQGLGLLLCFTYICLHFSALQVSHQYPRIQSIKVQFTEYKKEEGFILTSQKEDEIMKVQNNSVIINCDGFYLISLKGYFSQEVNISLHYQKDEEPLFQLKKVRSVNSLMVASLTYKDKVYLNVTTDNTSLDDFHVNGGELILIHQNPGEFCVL
Description: (§6) Transfection of CHO K1 with the respective expression plasmid DNA and selection of clones with high expression levels was performed as described in Example 1. Binding of the Nanobodies to the cell surface expressed OX40L was assessed by FACS analysis of cells as described below.
(§7) After washing bound Nanobodies were detected in FACSArray™ using mouse anti-c-myc and PE conjugated goat anti-mouse IgG.

[16] = target: T2, full length human OX40L expressed on …; assay: FACS binding to CHO cells, anti-c-myc detection
Description: as §6, §7

[17] = target: B5; assay: SPR, after second injection of buffer HBS-EP+
Description: as §3

[18] = target: B5; assay: SPR, second injection after competitor OX40L18E09
Description: as §3

[19] = target: T2, full length human OX40L expressed on …; assay: competition FACS, 3.1 nM hOX40/Fc on hOX40L expressing cells
[20] = target: T2, full length human OX40L expressed on …; assay: cell-based or functional assay
[21] = target: B5; assay: SPR, second injection after competitor OX40L19A07
Description: as §3

[22] = target: B5; assay: SPR, second injection after competitor OX40L01E07
Description: as §3

[23] = target: B5; assay: SPR, second injection after competitor OX40L01E10
Description: as §3

OX40L01E07 = target: T8, OX40L01E07; assay: competition ELISA: fixed concentration of OX40L01E07 pre-incubated with a concentration series of soluble hOX40L, then added to biotinylated hOX40L captured on neutravidin; bound Nanobody detected with rabbit anti-VHH antiserum and HRP goat anti-rabbit IgG, OD450nm
T8 construct: monovalent Nanobody from E. coli; not shown: C-terminal c-myc and His6 tag
T8 sequence (VHH, as listed by the source): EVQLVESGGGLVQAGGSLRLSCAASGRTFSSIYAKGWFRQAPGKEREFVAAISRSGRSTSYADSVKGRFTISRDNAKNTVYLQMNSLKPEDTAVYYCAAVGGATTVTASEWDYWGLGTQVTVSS
Description: as §4, §5

B1: OX40L056 (VHH, not shown: small tags and cut ends)
VHH: DVQLVESGGGLVQPGGSLRLSCAASRSIGRLDRMGWYRHRPGKPRELVATITGGSSINYADSVKGRFTISRDNSKNTVYLQMNSLRPEDTAVYYCNFNKYVTSRDTWGQGTLVTVSS
IC50, T cell assay with rec. hOX40L [1]: 135 nM
IC50 [2]: 1.12 nM
IC50 [3]: 1.12 nM
IC50 [4]: 1.12 nM
IC50 [5]: 1.12 nM

B2: OX40L082 (VHH, not shown: small tags and cut ends)
VHH: EVQLVESGGGLVQPGGSLRLSCAASRSIGRLDRMGWYRHRPGEPRELVATITGGSSINYGDSVKGRFTISIDNSKNTVYLQMNSLRPEDTAVYYCNFNKYVTSRDTWGQGTLVTVSS
IC50 [2]: 0.14 nM
fold decrease in potency compared with the parental Nanobody OX40L15B07 [6]: ~2 fold
IC50 [5]: 0.14 nM

Binder: B5
IC50 (read off the curve) (OX40L01E07): ~800 pM

Further lines, with some results ahead:

fold drop in potency compared with the parental Nanobody OX40L15B07 [6]: ~6 fold
B3: OX40L083 (VHH, not shown: small tags and cut ends)
VHH: EVQLVESGGGLVQPGGSLRLSCAASRSIGRLDRMGWYRHRPGKPRELVATITGGSSINYGDSVKGRFTISIDNSKNTVYLQMNSLRPEDTAVYYCNFNKYVTSRDTWGQGTLVTVSS

Binding Level sample 2 (RU) [7]: 468 RU
Binding Level sample 2 - sample 1 (RU) [7]: 159 RU
IC50 [8]: 0.133 nM
IC50 [9]: 4 nM
IC50 [10]: 0.285 nM
Binding Level sample 2 (RU) [13]: 239 RU
Binding Level sample 2 - sample 1 (RU) [13]: 42 RU
Binding Level sample 2 (RU) [14]: 236 RU
Binding Level sample 2 - sample 1 (RU) [14]: 7 RU
EC50 [15]: 3.4 nM
EC50 [16]: 2.85 nM
Binding Level sample 2 (RU) [17]: 184 RU
Binding Level sample 2 - sample 1 (RU) [17]: -38 RU
Binding Level sample 2 (RU) [18]: 224 RU
Binding Level sample 2 - sample 1 (RU) [18]: 33 RU
IC50 [19]: 3.31 nM
IC50, IL4 production, T-cell activation assay, donor 1 [20]: 90 nM
IC50, IL4 production, T-cell activation assay, donor 2 [20]: 132 nM
IC50, IL4 production, T-cell activation assay, donor 3 [20]: 36 nM
IC50, IL4 production, T-cell activation assay, donor 4 [20]: 96 nM
Binding Level sample 2 (RU) [21]: 224 RU
Binding Level sample 2 - sample 1 (RU) [21]: 47 RU
Binding Level sample 2 (RU) [22]: 187 RU
Binding Level sample 2 - sample 1 (RU) [22]: 3 RU
Binding Level sample 2 (RU) [23]: 275 RU
Binding Level sample 2 - sample 1 (RU) [23]: 49 RU
B4: OX40L19D08 (VHH)
VHH: EVQLVESGGGLVQAGASLRLSCAASGRRFISNYAMGWFRQAPGQERAFVAAISRSGSITYYTDSVKGRFSISRDYAKSTVYLQMDNLKPEDTAVYYCAADGGAVRDLTTNLPDYWGRGTQVTVSS
notes: monovalent Nanobody from E. coli; not shown: C-terminal c-myc and His6 tag
binding result (hCD40L): no binding (tested: starting from 100 fold molar excess)
binding result [11]: no binding (tested: starting from 100 fold molar excess)
binding result (hCD30L): no binding (tested: starting from 100 fold molar excess)
binding result [12]: no binding (tested: starting from 100 fold molar excess)
binding result (hTNF-alpha): no binding (tested: starting from 100 fold molar excess)
